Results on one substance are retold here after patent US8642555.

This data set has as its system albumin-bound form of EMC-Arg-Ser-Ser-Tyr-Tyr-Ser-Leu-PABC-DOXO (6).

Turning to prostate-specific antigen (PSA), the “PSA-mediated cleavage monitored by HPLC (enzyme activity)” value is listed as “cleaved efficiently within a few hours”.
